Columns and labels:
[1] = target: glycosomal malate dehydrogenase (MDH, residues 1-323) of Trypanosoma cruzi (Trypanosoma cruzi) (UniProt Q4DRD8); assay: ITC
[2] = target: truncated Pex5 containing a single Wxxx(F/Y) motif (residues 314-666; Pex5TPR) (Trypanosoma cruzi) (UniProt Q4DPQ9); assay: ITC
[3] = target: Pex5 Y358A mutant (Pex5TPR) (Trypanosoma cruzi) (UniProt Q4DPQ9); assay: ITC
[4] = target: Pex5TPR with a GSGS-spacer between the TPR domain and the Wxxx(F/Y) motif (Trypanosoma cruzi) (UniProt Q4DPQ9); assay: ITC
[5] = target: MDH GSGS-linker mutant (GSGS introduced between PTS1 and MDH) (Trypanosoma cruzi); assay: ITC
[6] = target: MDH with the 62-70 loop replaced with GS-linker (Trypanosoma cruzi); assay: ITC
[7] = target: Pex5 mutant with a partial deletion of the 457-489 loop (Pex5 Δ470-480) (Trypanosoma cruzi) (UniProt Q4DPQ9); assay: ITC
cryo-EM structure = target: the molecule itself; assay: cryo-EM structure

“Pex5 P490R mutant (from UniProt Q4DPQ9 316-668) (domain or fragment)” was tested, and the fold decrease in affinity against wild type Pex5 [1] was > 3 fold.

Pex14NTD(A48F) (domain or fragment) was tested, and the fold decrease in affinity against wild type Pex14NTD [2] was 2 fold.

“N-terminal domain of Pex14 (Pex14NTD; residues 21-85) of Trypanosoma cruzi (domain or fragment)” gave a fold decrease in affinity against wild type Pex5 [3] of 1.5 fold, a Kd [2] of 0.053 µM and a fold decrease in affinity against wild type Pex5 [4] of 3.5 fold.

Molecule “truncated Pex5 containing a single Wxxx(F/Y) motif (residues 314-666; Pex5TPR) (from UniProt Q4DPQ9 316-668) (domain or fragment)” has a fold increase in affinity against wild type MDH [5] of 4 fold, a fold decrease in affinity against wild type MDH [6] of 2.5 fold and a Kd [1] of 0.435 µM.

In the case of H-ARSKL-OH [short peptide encompassing PTS1 of MDH (residues 319-ARSKL-323)], the fold decrease in affinity against wild type Pex5 [7] is reported as 3 fold.

B1: glycosomal malate dehydrogenase (MDH, residues 1-323) of Trypanosoma cruzi (enzyme, UniProt Q4DRD8 1-323, looked up)
chain: MVNVAVIGAAGGIGQSLSLLLLRELPFGSTLSLYDVVGAPGVAADLSHIDRAGITVKHAAGKLPPVPRDPALTELAEGVDVFVIVAGVPRKPGMTRDDLFNVNAGIVMDLVLTCASVSPNACFCIVTNPVNSTTPIAAQTLRKIGVYNKNKLLGVSLLDGLRATRFINNARHPLVVPYVPVVGGHSDVTIVPLYSQIPGPLPDESTLKEIRKRVQVAGTEVVKAKAGRGSATLSMAEAGARFTMHVVKALMGLDTPMVYAYVDTDGEHECPFLAMPVVLGKNGIERRLPIGPITTVEKEMLEEAVGVVKKNIAKGETFARSKL
B1 was tested, and the “stoichiometry N” value (cryo-EM structure) was 4.

From article doi:10.1101/2023.04.03.535445 (bioRxiv, 2023)
